Test results as given in US10487348B2, “3-alpha-hydroxysteroid dehydrogenase mutants and process for the preparation of ursodeoxycholic acid” (Pharmazell GmbH, priority 2014, dated 2019).
Entries after “also recorded” stand apart in the source; their conditions may differ. Where two headings read alike, the source gives them in different places.

Experiments:
[1] = target: T1, 3α-HSDH; substrate DHCA (Comamonas testosteroni, UniProt P80702); type: biochemical
T1 sequence (P80702 whole entry, looked up): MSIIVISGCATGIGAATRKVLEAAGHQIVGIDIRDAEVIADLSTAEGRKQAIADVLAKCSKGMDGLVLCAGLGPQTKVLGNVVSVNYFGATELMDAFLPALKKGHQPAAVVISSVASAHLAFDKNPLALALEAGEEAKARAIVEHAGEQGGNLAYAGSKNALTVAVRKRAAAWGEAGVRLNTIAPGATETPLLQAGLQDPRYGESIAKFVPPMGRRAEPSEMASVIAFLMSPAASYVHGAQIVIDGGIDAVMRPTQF

[2] = system: 3α-HSDH; substrate DHCA; type: biochemical, Comamonas testosteroni
[3] = target: 3α-HSDH; substrate DHCA (Comamonas testosteroni, UniProt P80702, R34N); type: biochemical; details: versus wild type
[4] = system: 3α-HSDH; substrate DHCA; type: biochemical, Comamonas testosteroni; details: substrate DHCA; FIGS. 8A-8B; listed as dual mutant
[5] = target: 3α-HSDH; substrate DHCA (Comamonas testosteroni, UniProt P80702, L68A/R34N); type: biochemical; details: purified enzyme
[6] = Table 4, variants modified at position 34
[7] = Table 7, variants modified at position 68
[8] = Table 9, crude extract, dual mutant position 34 and 68

Molecule	Specific activity [2, 6] [U/mg]	Volumetric activity [2, 6] [U/ml]	Specific activity [2, 8] [U/mg]	Volumetric activity [2, 8] [U/ml]	other results
Crude extract (without His tag): non-tagged wild-type 3α-HSDH of Comamonas testosteroni (SEQ ID NO: 4) (protein, listed as Comamonas testosteroni) MSIIVISGCATGIGAATRKVLEAAGHQIVGIDIRDAEVIADLSTAEGRKQAIADVLAKCSKGMDGLVLCAGLGPQTKVLGNVVSVNYFGATELMDAFLPALKKGHQPAAVVISSVASAHLAFDKNPLALALEAGEEAKARAIVEHAGEQGGNLAYAGSKNALTVAVRKRAAAWGEAGVRLNTIAPGATETPLLQAGLQDPRYGESIAKFVPPMGRRAEPSEMASVIAFLMSPAASYVHGAQIVIDGGIDAVMRPTQF					DHCA concentration at which maximum activity is reached [1]: approximately 1 mM
3α-HSDH [R34N] (protein) MSIIVISGCATGIGAATRKVLEAAGHQIVGIDINDAEVIADLSTAEGRKQAIADVLAKCSKGMDGLVLCAGLGPQTKVLGNVVSVNYFGATELMDAFLPALKKGHQPAAVVISSVASAHLAFDKNPLALALEAGEEAKARAIVEHAGEQGGNLAYAGSKNALTVAVRKRAAAWGEAGVRLNTIAPGATETPLLQAGLQDPRYGESIAKFVPPMGRRAEPSEMASVIAFLMSPAASYVHGAQIVIDGGIDAVMRPTQFLEHHHHHH	3.0	58.0			activity improved (best mutant at position 34) [3]: approx. 3 fold
3α-HSDH (WT): Comamonas testosteroni 3α-HSDH wild type, C-terminally extended by His-Tag LEHHHHHH (SEQ ID NO: 5) (protein, C-terminal His-tag LEHHHHHH) MSIIVISGCATGIGAATRKVLEAAGHQIVGIDIRDAEVIADLSTAEGRKQAIADVLAKCSKGMDGLVLCAGLGPQTKVLGNVVSVNYFGATELMDAFLPALKKGHQPAAVVISSVASAHLAFDKNPLALALEAGEEAKARAIVEHAGEQGGNLAYAGSKNALTVAVRKRAAAWGEAGVRLNTIAPGATETPLLQAGLQDPRYGESIAKFVPPMGRRAEPSEMASVIAFLMSPAASYVHGAQIVIDGGIDAVMRPTQFLEHHHHHH	2.1	38.0	2.1	44.9	Specific activity [2, 7]: 2.1 U/mg; Volumetric activity [2, 7]: 44.9 U/ml; substrate excess inhibition [1]: no longer demonstrates the pronounced substrate excess inhibition
3α-HSDH [R34N/L68A] (protein) MSIIVISGCATGIGAATRKVLEAAGHQIVGIDINDAEVIADLSTAEGRKQAIADVLAKCSKGMDGLVACAGLGPQTKVLGNVVSVNYFGATELMDAFLPALKKGHQPAAVVISSVASAHLAFDKNPLALALEAGEEAKARAIVEHAGEQGGNLAYAGSKNALTVAVRKRAAAWGEAGVRLNTIAPGATETPLLQAGLQDPRYGESIAKFVPPMGRRAEPSEMASVIAFLMSPAASYVHGAQIVIDGGIDAVMRPTQFLEHHHHHH			4.5	139.7	activity compared with the wild type with His tag (courses of Michaelis-Menten kinetics) [4]: not being quite as active as the wild type at low substrate concentrations; also recorded: markedly higher activities than the wild-type enzyme at higher substrate concentrations; increase of the maximum activity over the wild type [5]: approx. 25%
